These results are taken from patent publication CN114773485A (JIANGSU SIMCERE PHARM CO LTD, dated 2022).

For orientation: IC50 means the concentration that inhibits the measured activity by half. Lower therefore signals higher potency. For orientation: EC50 means the concentration at which the effect is half-maximal. High values mean a less potent agent, low ones a more potent agent.

Values joined by “and” are separate entries in the source; they are usually repeats but may differ in a detail not shown here. Equal values may be shown once.

In assay [1] the target is T1, 食蟹猴PD-L1蛋白(Cat.#90251-C08H，Sinobiological) (cynomolgus monkey, UniProt G7PSE7 19-239).
T1 construct: Bought protein used as analyte in Biacore; also called 食蟹猴PD-L1-His蛋白; 食蟹猴PD-L1重组蛋白; not shown: His tag
T1 sequence (G7PSE7 entry or part of it C08H C08H): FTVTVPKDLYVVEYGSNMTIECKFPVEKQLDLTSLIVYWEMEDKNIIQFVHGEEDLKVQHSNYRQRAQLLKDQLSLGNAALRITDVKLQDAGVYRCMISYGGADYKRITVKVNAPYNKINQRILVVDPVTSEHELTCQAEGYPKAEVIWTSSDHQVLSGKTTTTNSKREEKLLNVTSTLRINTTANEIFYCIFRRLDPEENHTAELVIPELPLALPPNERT
Briefly: SPR, Biacore T200, antibody captured on Protein A chip, 25℃, 1:1 model. A general note: Surface plasmon resonance follows binding to a sensor surface in real time, without labels.

In the assay “人PD-L1重组蛋白(Sino …)” the target is T2, 人PD-L1重组蛋白(Sino Biological,Cat.10084-H05H) (human, UniProt Q9NZQ7 19-239).
T2 construct: also called 人PD-L1蛋白
T2 sequence (Q9NZQ7 19-239 limits assumed): as the sequence (G7PSE7 entry or part of it C08H C08H) above, with T33A, S34A, N62S, Q68R, R82Q, L173F, A185T, I192T, L215H counted along it
As to the kind of experiment: competition ELISA, human PD-L1 coated, blocks PD-1-His. In general terms: In an ELISA, binding on a coated surface is turned into a signal by an enzyme label.

For another assay, the target named is T3, 重组人TGF-β1蛋白 (human, UniProt P01137 279-390).
T3 construct: also called 重组人、食蟹猴TGF-β1(Cat.#10804-HNAC，Sinobiological); 人TGF-β1重组蛋白(Novoprotein,Cat.CA59)
T3 sequence (P01137 279-390 limits assumed): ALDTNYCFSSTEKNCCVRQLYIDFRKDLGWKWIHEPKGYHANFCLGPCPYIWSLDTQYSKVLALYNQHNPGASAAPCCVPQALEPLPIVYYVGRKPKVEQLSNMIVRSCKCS
As to the kind of experiment: bridging ELISA: TGF-β1 coated, test molecule, then PD-L1-His and anti-His-HRP.

The target of assay [2] is T4, PD-L1 on CHO-PD-L1 cells (UniProt Q9NZQ7 19-290, limits assumed).
T4 construct: whole, on cells; also called CHO-PD-L1细胞(南京勇山生物科技有限公司); 稳定转染PD-L1的CHO细胞株(GenScript，Cat.M00613)
T4 sequence (Q9NZQ7 19-290 limits assumed): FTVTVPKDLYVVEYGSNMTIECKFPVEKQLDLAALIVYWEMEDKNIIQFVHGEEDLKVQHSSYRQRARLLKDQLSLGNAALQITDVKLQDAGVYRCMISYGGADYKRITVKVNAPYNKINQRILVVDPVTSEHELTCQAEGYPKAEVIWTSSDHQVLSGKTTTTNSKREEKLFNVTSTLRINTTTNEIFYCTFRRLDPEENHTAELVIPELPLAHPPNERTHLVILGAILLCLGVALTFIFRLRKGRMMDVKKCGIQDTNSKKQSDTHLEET
As to the kind of experiment: flow cytometry on CHO-PD-L1 cells, anti-human IgG PE.

Assay [3] addresses T4, PD-L1 on CHO-PD-L1 cells. Briefly: cell-based or functional assay.
In assay [4] the target is T5, PD-L1 on mature human dendritic cells (human, UniProt Q9NZQ7 19-290).
T5 construct: whole, on cells; also called DC细胞表面PD-L1
T5 sequence (Q9NZQ7 19-290): as the sequence (Q9NZQ7 19-290 limits assumed) above
Briefly: flow cytometry on mature human DC, anti-human IgG PE. In general terms: A flow cytometer gives signals particle by particle.

B1: 人源化抗PD-L1抗体156-BM12 (antibody, V domains shown)
VH: QVQLVQSGPELKKPGASVKISCKASGYTFTDYYMNWVRQAPGQSLEWIGDINPNNGDTSYNQKFKGRVTLTRDTSTSTVYMELRSLRSEDTAVYYCARSVMDYWGQGTLVTVSS
VL: EIVLTQSPALLSLSPGERVTLSCSASSSVNYVYWYQQKPGQAPRPLIYLTFNLASGIPARFSGSGSGTDFTLTISSLEPEDFAVYYCQQWSSNPLTFGGGTKVEIK
notes: also called PD-L1单抗156-BM12; 人源化PD-L1抗体
On to B1, for which the values for the binding result (in assay [1]; in the assay with 重组人TGF-β1蛋白) were “binds” and “no binding (tested: 4nM)”, respectively. Further, in the assay with 人PD-L1重组蛋白(Sino …), the IC50 was 0.896 nM and 1.49 nM. The half-maximal effective concentration (EC50) is 0.105 µg/mL in the assay with PD-L1 on CHO-PD-L1 cells [2] and 0.405 nM in assay [4]. Further, the “EC50, NFAT luciferase reporter (RLU), Jurkat-PD-1/CHO-PD-L1” value with PD-L1 on CHO-PD-L1 cells [3] was 341 ng/ml and 2.15 nM.
